Measured values from US20220242973A1 (Molecular Partners, published 2022).

How the values were obtained:
[1] = molecular target: T1, Human FAP expressed on the cell surface (WI38, CHO-FAP1.9, U87MG cells) (human, UniProt Q12884 1-760); test: FACS on WI38 cells (FAP on the cell surface), His-tag detected with Penta-His AF647 conjugate, median fluorescence intensity
T1 construct: whole, on cells; Endogenous on WI38 and U87MG cells; from a human FAP cDNA (OriGene) in CHO-FAP1.9 cells; also called hFAP; FAP+ cells
T1 sequence (looked up): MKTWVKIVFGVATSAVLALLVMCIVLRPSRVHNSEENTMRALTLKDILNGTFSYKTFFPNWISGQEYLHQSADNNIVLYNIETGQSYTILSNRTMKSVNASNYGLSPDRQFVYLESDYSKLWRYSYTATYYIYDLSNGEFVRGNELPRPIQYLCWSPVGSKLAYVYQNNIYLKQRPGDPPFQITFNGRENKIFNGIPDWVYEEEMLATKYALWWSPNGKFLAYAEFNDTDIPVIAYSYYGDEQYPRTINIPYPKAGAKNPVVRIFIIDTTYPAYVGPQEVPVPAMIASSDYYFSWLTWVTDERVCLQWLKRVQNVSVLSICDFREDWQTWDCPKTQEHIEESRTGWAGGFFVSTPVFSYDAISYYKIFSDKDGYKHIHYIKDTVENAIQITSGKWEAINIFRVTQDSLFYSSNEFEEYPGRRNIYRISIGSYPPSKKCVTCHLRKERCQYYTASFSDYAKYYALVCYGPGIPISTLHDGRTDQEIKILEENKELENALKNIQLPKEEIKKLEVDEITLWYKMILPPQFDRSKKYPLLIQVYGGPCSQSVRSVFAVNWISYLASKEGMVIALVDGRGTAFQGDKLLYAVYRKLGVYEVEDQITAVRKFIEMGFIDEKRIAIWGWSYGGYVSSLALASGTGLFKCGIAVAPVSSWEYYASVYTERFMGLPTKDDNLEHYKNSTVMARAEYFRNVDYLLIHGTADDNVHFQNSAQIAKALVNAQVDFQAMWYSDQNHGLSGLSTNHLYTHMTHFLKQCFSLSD
Protocol: (§1) In order to determine whether the fusion of a biologically active molecule to a FAP-specific ankyrin repeat domain affects the ability of the molecule to specifically recognize and bind to FAP expressed on the surface of cells, the binding of selected ankyrin repeat fusion proteins to FAP-expressing cells was tested. U87 MG cells and WI38 cells are known to express FAP on the cell surface and they were chosen as representative cells for these experiments. FAP expression on the U87 MG and WI38 cells was confirmed by FACS analysis (data not shown).
(§2) Using multi-well plates, 40,000 cells (either U87MG or WI38) were added per well in 50 μl of PBS. 50 μl of appropriate dilutions (2× dilution steps) of ankyrin repeat fusion protein (DARPin® protein #40 or DARPin® protein #41) was then added to the cells and incubated for 30 minutes on ice. After the ankyrin repeat fusion protein-binding reaction, cells were washed twice with PBS. Direct immunofluorescent detection of the His-tagged ankyrin repeat fusion proteins using Penta-His AF647 conjugate (QIAgen) and determination of live cells using LIVE/DEAD™ Fixable Green Dead Cell Stain Kit (ThermoFisher) were then performed together in one step. […] Acquisition and FACS analysis, including the determination of median fluorescence intensity (MFI), were done within 5 days after staining using an AttuneNxT instrument. […]

[2] = molecular target: T1, Human FAP expressed on the cell surface …; test: FACS on U87MG cells (FAP on the cell surface), His-tag detected with Penta-His AF647 conjugate, median fluorescence intensity
Protocol: as §1, §2

B1: DARPin® protein #41 (designed binder)
chain: MRGSHHHHHHGSDLGKKLLEAARAGQDDEVRELLKAGADVNAKDYFSHTPLHLAARNGHLKIVEVLLKAGADVNAKDFAGKTPLHLAANEGHLEIVEVLLKAGADVNAQDIFGKTPADIAADAGHEDIAEVLQKAAGSPTPTPTTPTPTPTTPTPTPTGSDLGEKLLVAALYGQDDEVRILLAAGADVNAKDQWGLTPLHKAALQGHLEIVEVLLKAGADVNAKDERGHTPLHWAARFGHLEIVEVLLKAGADVNAQDQKGYTPADLAALWGHEDIAEVLQKAA
notes: Fusion of a serum albumin-specific and a FAP-specific ankyrin repeat domain
With B1 the “EC50 (read off the curve)” value [1] was about 2 nM and the “EC50 (read off the curve)” value [2] was about 2 nM.
